Residue numbers refer to the chain shown, from its start. Names and notes keep the numbering of the source. Each block holds one molecule with its values, some of them ahead of it.
System: NgR ligands
Test: Binding of alanine substituted NgR mutants to NgR ligands, summary categories
Details: AP-Nogo66, AP-B4C, AP-B4C66, AP-Lingo-1, AP-OMgp and AP-MAG; compared to wild type NgR
From the text: To better define how multiple ligands bind to the NgR protein, we examined a series of Ala-substituted NgR for ligand binding activity. NgR mutagenesis was done using the Quick Change Multisite Directed Mutagenesis Kit (Stratagene catalog #200514). Human NgR1 was used as a template. Ala substitutions were generated for each of the charged residues predicted to be solvent accessible at the surface of the ligand binding domain of NgR (Barton, W. A., et al., Embo J. 22:3291-3302 (2003); He, X. L., et al., Neuron 38:177-185 (2003)). We generated mutants in which 1-8 surface residues localized within 5 A of one another were Ala-substituted. Because of the coiling nature of the LRR structure, as residues juxtaposed on the protein surface are commonly separated by approximately 25 residues in the primary structure. In addition to mutations in specific charged surface patches, other mutations were targeted to glycosylation sites and to regions predicted to be involved in ligand binding based on the NgR structure (Barton, W. A., et al., Embo J. 22:3291-3302 (2003); He, X. L., et al., Neuron 38:177-185 (2003)). In addition, a variant corresponding to a human polymorphism was examined (D259N). None of the mutations altered the Leu residues that define the LRR structure itself or the Cys residues critical in the amino and carboxyl terminal capping domains. The vast majority of such Ala surface substitution mutants were expressed as immunoreactive polypeptides with a molecular weight and an expression level indistinguishable from wild type NgR (FIG. 4C and data not shown).
This collection of 74 individual NgR mutants was interrogated for AP-Nogo-66, AP-Amino-Nogo-B4C, AP-MAG, AP-OMgp, and AP-Lingo-1 binding. AP-Nogo66, AP-MAG, AP-OMGP and AP-Lingo-1 constructs are described elsewhere (Fournier, A. E., et al., Nature 409:341-346 (2001); Liu, B. P., et al., Science 297:1190-1193 (2002); Mi, S., et al., Nat. Neurosci. 7:221-228 (2004); Wang, K. C., et al., Nature 417:941-944 (2002b)). The properties of the NgR mutants fell into one of three major categories (Table II and FIG. 5). A number of Ala substituted NgR polypeptides bound all of the ligands at wild type levels. […] In addition, a significant extent of the concave surface is dispensable for ligand binding.
Alanine substituted NgR mutants were tested for their binding to AP-Nogo66, AP-B4C, AP-B4C66, AP-Lingo-1, AP-OMgp and AP-MAG and they fall into three categories: (1) Mutants that lose binding to all NgR ligands. (2) Mutants that still maintain binding to all NgR ligands. […] The D259N mutant is an asparagine substitution to mimic a human polymorphism.

B3: 127, 151: human NgR1 mutant, listed residues mutated to alanine (protein)
chain: CPGACVCYNEPKVTTSCPQQGLQAVPVGIPAASQRIFLHGNRISHVPAASFRACRNLTILWLHSNVLARIDAAAFTGLALLEQLDLSDNAQLRSVDPATFAGLGRLHTLHLDRCGLQELGPGLFAGLAALQYLYLQDNALQALPDDTFRDLGNLTHLFLHGNRISSVPERAFRGLHSLDRLLLHQNRVAHVHPHAFRDLGRLMTLYLFANNLSALPTEALAPLRALQYLRLNDNPWVCDCRARPLWAWLQKFRGSSSEVPCSLPQRLAGRDLKRLAANDLQGCAVATGPYHPIWTGRATDEEPLGLPKCCQPDAADKASVLEPGRPASAGNALKGRVPPGDSPPGNGSGPRHINDSPFGTLPGSAEPPLTAVRPEGSEPPGFPTSGPRRRPGCSRKNRTRSHCRLGQAGSGGGGTGDSEGSGALPSLTCSLTPLGLALVLWTVLGPC
- ligand binding category of NgR mutant (Table II): Binding to all ligands

B4: 127, 176: human NgR1 mutant, listed residues mutated to alanine (protein)
chain: B3 chain with A125R, D150A
- ligand binding category of NgR mutant (Table II): Binding to all ligands

B5: 182, 186: human NgR1 mutant, listed residues mutated to alanine (protein)
chain: B3 chain with A101H, A125R, H156A, H160A
- ligand binding category of NgR mutant (Table II): No binding

B6: 143, 144: human NgR1 mutant, listed residues mutated to alanine (protein)
chain: B3 chain with A101H, Q117A, E118A, A125R
- ligand binding category of NgR mutant (Table II): Binding to all ligands

B7: 232, 234: human NgR1 mutant, listed residues mutated to alanine (protein)
chain: B3 chain with A101H, A125R, Y206A, F208A
- ligand binding category of NgR mutant (Table II): No binding

Second part, the molecule after the results:

- ligand binding category of NgR mutant (Table II): No binding
B1: 133, 136: human NgR1 mutant, listed residues mutated to alanine (protein)
chain: B3 chain with A101H, H107A, H110A, A125R

- ligand binding category of NgR mutant (Table II): Binding to all ligands
B2: D259N: human NgR1 mutant, asparagine substitution to mimic a human polymorphism (protein)
chain: B3 chain with A101H, A125R, D233N

- ligand binding category of NgR mutant (Table II): Binding to all ligands
B8: 114, 117: human NgR1 mutant, listed residues mutated to alanine (protein)
chain: B3 chain with D88A, Q91A, A101H, A125R

- ligand binding category of NgR mutant (Table II): Binding to all ligands
B9: 63, 65: human NgR1 mutant, listed residues mutated to alanine (protein)
chain: B3 chain with F37A, H39A, A101H, A125R

- ligand binding category of NgR mutant (Table II): No binding
B10: 158, 160: human NgR1 mutant, listed residues mutated to alanine (protein)
chain: B3 chain with A101H, A125R, Y132A, Y134A

- ligand binding category of NgR mutant (Table II): No binding
B11: 82, 179: human NgR1 mutant, listed residues mutated to alanine (protein)
chain: B3 chain with N56A, A101H, A125R, N153A

- ligand binding category of NgR mutant (Table II): Binding to all ligands
B12: 36, 38: human NgR1 mutant, listed residues mutated to alanine (protein)
chain: B3 chain with E10A, K12A, A101H, A125R
